Test results reported in the supplement of paper PMC10126150.
± gives the standard deviation of the averaged measurements.

Tested on: ATP
Test: switch fluorescence ratio, 500 uM ATP over buffer (Cy3 cluster intensity, sum of 5 cycles each) (fold (ratio)); higher = stronger signal-on switching upon ATP binding; sequences stand for … in TCGTCGGCAGCGTCAGATGTGTATAAGAGACAGTTTTTTTTTTTTTTTTTTTTTTTTT…TC
Details: aptamer strand: ATP DNA aptamer (quencher-CACCTGGGGGAGTATTGCGGAGGAAGG + anchor), 100 nM annealed; ATP concentration: 500 uM
How it was run: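 Per cluster, summed Cy3 intensity from the target cycles was divided by that from the buffer cycles to give the fluorescence ratio, then averaged per switch-domain sequence. Clusters outside 100-1000 RFU were excluded. The Cy3-labelled switching-strand clusters, on a modified Illumina MiSeq flow-cell, were annealed to 100 nM quencher-labelled ATP aptamer and imaged in selection buffer, then after 15 min with 500 uM ATP at 22 °C, for five cycles with NaOH stripping and re-annealing between them.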
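Note: ATP exposure 15 min at 22 °C before imaging.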

Sequence	switch fluorescence ratio
ATCGGTAACT	1.01 ± 0.032
ATCGGTAGGT	0.99 ± 0.019
ATCGGTCAGC	0.982 ± 0.022
ATCGGTGAAG	0.9925 ± 0.0058
ATCGGTTCGG	0.9934 ± 0.0053
ATCGTAATGG	1.04 ± 0.038
ATCGTACGGC	1.01 ± 0.026
ATCGTATTCA	1.01 ± 0.027
ATCGTGATCC	1.016 ± 0.0094
ATCGTGGGGA	1.012 ± 0.0075
ATCGTGTGGT	0.9829 ± 0.0092
ATCGTTAAGC	1.03 ± 0.022
ATCGTTCAAT	0.9983 ± 0.0046
ATCGTTTACG	0.994 ± 0.036
ATCGTTTGCA	1.02 ± 0.022
ATCTAATAGG	0.959 ± 0.018
ATCTAGATTG	0.982 ± 0.042
ATCTATATAG	0.9945 ± 0.0068
ATCTATGTTT	0.9872 ± 0.0041
ATCTCAATTT	0.967 ± 0.027
ATCTCTGGTT	0.966 ± 0.031
ATCTGAATGG	1.12 ± 0.17
ATCTGCTCTT	1.01 ± 0.04
ATCTGCTTGA	0.974 ± 0.042
ATCTGGGGTT	1.04 ± 0.015

Sequence	switch fluorescence ratio
ATCTGGGTAG	1.01 ± 0.03
ATCTGTATGT	0.968 ± 0.017
ATCTGTGAAC	1.05 ± 0.073
ATCTGTGGGG	0.9962 ± 0.0026
ATCTTAGTAA	0.9998 ± 0.0099
ATCTTAGTTA	0.999 ± 0.026
ATCTTATTTG	1.01 ± 0.033
ATCTTGCGGA	1.02 ± 0.05
ATCTTGGCTG	0.983 ± 0.03
ATCTTTCGAA	1.03 ± 0.026
ATGAAAAAAA	0.976 ± 0.12
ATGAAAACGG	1 ± 0.051
ATGAAAAGTT	0.993 ± 0.011
ATGAAAATTA	0.975 ± 0.025
ATGAAAGCGT	1.032 ± 0.01
ATGAAATAAA	0.9835 ± 0.0022
ATGAAATGTT	1.011 ± 0.0053
ATGAACTCAG	1.03 ± 0.037
ATGAAGAGAT	0.9886 ± 0.0064
ATGAAGGAGC	0.9917 ± 0.0046
ATGAAGGGTT	1 ± 0.029
ATGAATACAA	1.01 ± 0.014
ATGAATGAAC	1.03 ± 0.063
ATGAATTCTC	1.01 ± 0.078
ATGAATTGTT	0.974 ± 0.02

Sequence	switch fluorescence ratio
ATGAATTTTA	1 ± 0.031
ATGACCGATT	1.02 ± 0.049
ATGACCTCTT	0.985 ± 0.034
ATGACCTGGG	0.9769 ± 0.0049
ATGACTAAGA	1.006 ± 0.0034
ATGACTGATA	1.028 ± 0.0038
ATGACTTATT	0.968 ± 0.027
ATGAGAAAAG	0.991 ± 0.0095
ATGAGACAGA	0.999 ± 0.049
ATGAGATTTT	0.988 ± 0.015
ATGAGCTGAG	1.01 ± 0.035
ATGAGGGACT	0.9594 ± 0.0036
ATGAGGGG	1.01 ± 0.043
ATGAGGGGGA	0.997 ± 0.026
ATGAGGGGGT	1.03 ± 0.024
ATGAGGGGTA	1.01 ± 0.026
ATGAGGGTTG	1.04 ± 0.013
ATGAGGGTTT	1.01 ± 0.017
ATGAGTCATC	0.981 ± 0.034
ATGAGTGTGT	0.984 ± 0.015
ATGATAAATT	0.963 ± 0.04
ATGATAGTGA	0.991 ± 0.012
ATGATATTGA	0.99 ± 0.011
ATGATATTTC	0.961 ± 0.021
ATGATCTGAG	1.028 ± 0.005

Sequence	switch fluorescence ratio
ATGATCTGCT	0.946 ± 0.03
ATGATGAGGT	1 ± 0.017
ATGATGATGG	0.9858 ± 0.0096
ATGATGGATT	1.008 ± 0.0031
ATGATGGG	1.01 ± 0.017
ATGATGGGCT	0.9654 ± 0.0059
ATGATGGTTT	1.02 ± 0.032
ATGATGTTTG	0.981 ± 0.039
ATGATTAACT	0.986 ± 0.036
ATGATTACGC	1.06 ± 0.015
ATGATTAGCT	1.0032 ± 0.00021
ATGATTGGCC	0.9882 ± 0.0086
ATGATTTTGT	1.013 ± 0.01
ATGCAAAGGA	1 ± 0.043
ATGCAATGCT	3.19 ± 0.18
ATGCAATGGC	1.437 ± 0.012
ATGCAGAAAT	1.41 ± 0.83
ATGCAGCATG	1.021 ± 0.0038
ATGCAGGCGG	0.9811 ± 0.001
ATGCAGGTGT	1.23 ± 0.014
ATGCATTACT	1.61 ± 0.11
ATGCATTTTG	0.97 ± 0.03
ATGCCCGTG	0.985 ± 0.014
ATGCCCTTCG	1.04 ± 0.013
ATGCCGAAGG	0.985 ± 0.054

Sequence	switch fluorescence ratio
ATGCCGGGGT	1.05 ± 0.013
ATGCCGGGTG	1.07 ± 0.047
ATGCCGGTAT	0.999 ± 0.053
ATGCCGTGGC	1.02 ± 0.033
ATGCCTAGTG	0.994 ± 0.013
ATGCCTGGGT	0.999 ± 0.034
ATGCGAATCG	0.99 ± 0.038
ATGCGCAGGG	1.04 ± 0.051
ATGCGGGCCA	1.012 ± 0.0061
ATGCGGTATG	1 ± 0.0024
ATGCGTACTT	1.01 ± 0.02
ATGCGTGGGG	1.02 ± 0.029
ATGCTAGGGT	0.9905 ± 0.0055
ATGCTATAGT	1.021 ± 0.0025
ATGCTCGGGG	1 ± 0.015
ATGCTGGGTT	0.993 ± 0.048
ATGCTTATAC	2.31 ± 0.36
ATGCTTTGGG	1.036 ± 0.0061
ATGGAAATTG	0.954 ± 0.019
ATGGAACGGT	1.003 ± 0.0053
ATGGAAGGGC	1.01 ± 0.011
ATGGAAGTTT	1.01 ± 0.022
ATGGAATCAG	1.015 ± 0.01
ATGGACAATA	1.07 ± 0.026
ATGGACGGTA	1.105 ± 0.0076

Sequence	switch fluorescence ratio
ATGGACGTTT	0.967 ± 0.048
ATGGACTCAA	1.051 ± 0.0073
ATGGAGAACT	0.976 ± 0.024
ATGGAGAGAA	1.01 ± 0.039
ATGGAGCGTG	0.994 ± 0.018
ATGGAGGGGA	1 ± 0.021
ATGGAGTTTG	0.9901 ± 0.0057
ATGGATGGTG	0.96 ± 0.029
ATGGATTGGC	1.08 ± 0.035
ATGGATTGGT	0.984 ± 0.012
ATGGATTTAG	1.014 ± 0.008
ATGGCAAAAG	1.01 ± 0.045
ATGGCAACAT	1.01 ± 0.041
ATGGCAATGT	1.08 ± 0.013
ATGGCACTGG	1.07 ± 0.013
ATGGCAGGCG	0.995 ± 0.04
ATGGCATCGG	1.005 ± 0.0035
ATGGCATGCT	1.02 ± 0.021
ATGGCCCGGC	1.03 ± 0.017
ATGGCGGATG	1.01 ± 0.063
ATGGCGGCGG	1.01 ± 0.014
ATGGCGTGGC	0.986 ± 0.018
ATGGCTTGGA	0.996 ± 0.029
ATGGGAAATC	0.9978 ± 0.0044
ATGGGACAGG	0.999 ± 0.033

Sequence	switch fluorescence ratio
ATGGGAGCCA	1 ± 0.028
ATGGGAGCTT	1.01 ± 0.025
ATGGGAGGGA	1.01 ± 0.021
ATGGGCAGGG	0.9931 ± 0.0056
ATGGGCAGGT	0.985 ± 0.02
ATGGGCCCCT	0.987 ± 0.025
ATGGGCGCGC	0.982 ± 0.036
ATGGGCGGGC	1.01 ± 0.03
ATGGGCGTTG	0.9658 ± 0.0037
ATGGGCTTTG	0.9674 ± 0.0093
ATGGGGACCT	1.17 ± 0.17
ATGGGGAGAA	1.01 ± 0.029
ATGGGGAGTT	0.972 ± 0.022
ATGGGGATCG	0.99341 ± 0.00035
ATGGGGATGT	1.03 ± 0.079
ATGGGGGAAT	1.0184 ± 0.00041
ATGGGGGAGT	0.9768 ± 0.0031
ATGGGGGCTA	0.979 ± 0.068
ATGGGGGGCG	1.02 ± 0.053
ATGGGGGGCT	0.987 ± 0.028
ATGGGGGTAT	0.987 ± 0.019
ATGGGGGTTT	0.984 ± 0.042
ATGGGGTCCA	0.976 ± 0.042
ATGGGGTGCT	0.986 ± 0.035
ATGGGGTTCT	0.992 ± 0.022

Sequence	switch fluorescence ratio
ATGGGGTTTC	1.01 ± 0.051
ATGGGTGAAG	0.9848 ± 0.0096
ATGGGTGTTG	0.992 ± 0.022
ATGGGTTGGG	0.991 ± 0.017
ATGGGTTGTG	1 ± 0.03
ATGGTAACGT	1.01 ± 0.044
ATGGTAAGGT	1 ± 0.014
ATGGTAGCCG	0.981 ± 0.012
ATGGTAGGTA	1 ± 0.031
ATGGTATGCT	0.992 ± 0.022
ATGGTATTTC	0.9887 ± 0.0013
ATGGTCGAGC	0.9822 ± 0.0076
ATGGTCGATG	0.965 ± 0.02
ATGGTCGGCA	0.985 ± 0.034
ATGGTGAGGC	0.95 ± 0.018
ATGGTGCCCC	1.09 ± 0.049
ATGGTGCTGA	1.01 ± 0.014
ATGGTGTCAG	0.994 ± 0.046
ATGGTGTGAG	1.02 ± 0.016
ATGGTGTGTG	1.01 ± 0.033
ATGGTTAGAT	1.01 ± 0.017
ATGGTTATCT	1.01 ± 0.034
ATGGTTCCCC	1.03 ± 0.013
ATGGTTCGCG	1 ± 0.015
ATGGTTGAGC	1.03 ± 0.024
